One assay deals with T1, mouse B7-H4-his (mouse, UniProt Q7TSP5 25-257).
T1 construct: also called mB7-H4-his; mB7-H4-His; not shown: his tag
T1 sequence: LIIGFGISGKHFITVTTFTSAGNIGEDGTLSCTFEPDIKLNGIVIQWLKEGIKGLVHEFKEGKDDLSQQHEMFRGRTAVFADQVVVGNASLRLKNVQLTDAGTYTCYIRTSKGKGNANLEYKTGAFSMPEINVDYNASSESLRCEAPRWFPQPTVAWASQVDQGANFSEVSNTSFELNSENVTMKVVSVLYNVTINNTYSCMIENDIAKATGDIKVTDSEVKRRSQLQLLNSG
Description: SPR (Biacore). (SPR reads the build-up and loss of mass on a sensor chip optically.)

The target of assay [1] is T2, mouse B7-H4-Fc (mouse; human).
T2 construct: also called mB7-H4-Fc; mB7-H4-hFc
T2 sequence (chain, as listed by the source): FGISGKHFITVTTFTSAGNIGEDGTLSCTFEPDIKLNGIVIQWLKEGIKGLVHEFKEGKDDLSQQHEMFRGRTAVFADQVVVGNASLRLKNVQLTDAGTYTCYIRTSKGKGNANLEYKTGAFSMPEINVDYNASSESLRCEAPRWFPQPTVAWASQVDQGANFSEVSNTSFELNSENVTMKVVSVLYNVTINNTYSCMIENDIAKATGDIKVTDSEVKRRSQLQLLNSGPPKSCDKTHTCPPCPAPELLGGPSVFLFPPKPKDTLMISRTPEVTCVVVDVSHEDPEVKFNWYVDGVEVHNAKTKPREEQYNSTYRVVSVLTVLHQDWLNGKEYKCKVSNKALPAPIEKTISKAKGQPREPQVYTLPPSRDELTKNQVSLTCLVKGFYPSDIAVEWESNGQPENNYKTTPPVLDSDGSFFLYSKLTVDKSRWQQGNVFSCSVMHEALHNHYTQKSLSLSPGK
The experiment in a line: SPR (Biacore).

A further assay deals with T3, human B7-H4-his (human, UniProt Q7Z7D3 25-259).
T3 construct: also called hB7-H4-his; hB7-H4 his; not shown: his tag
T3 sequence: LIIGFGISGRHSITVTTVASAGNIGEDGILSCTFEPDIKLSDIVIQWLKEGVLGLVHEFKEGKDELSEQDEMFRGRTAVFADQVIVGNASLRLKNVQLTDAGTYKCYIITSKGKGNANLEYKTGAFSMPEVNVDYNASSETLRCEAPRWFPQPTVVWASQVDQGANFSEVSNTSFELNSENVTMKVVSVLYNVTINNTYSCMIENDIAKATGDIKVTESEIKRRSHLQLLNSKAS
The experiment in a line: SPR (Biacore). The method, then: (§1) Surface plasmon resonance experiments were performed using a Biacore T200 instrument equipped with CM5 sensor chips. The system was equilibrated in running buffer HBS-EP pH 7.4. The ligands were immobilized using amine-coupling chemistry. The surfaces of flow cells one through four were activated for 5 min using an amine coupling kit at a flow rate of […]. The ligands (human B7-H4-Fc, human B7-H4-hism and mouse B7-H4-Fc; at a concentration of 5 μg/ml in 10 mM sodium acetate, pH 5.0) were immobilized at a density of 50-100 RU on flow cell 2, 3, 4 respectively. Flow cell 1 was left blank to serve as a reference surface. All flow cell surfaces were blocked with a 5 min injection of 1 M ethanolamine, pH 8.0. To collect kinetic binding data, the respective analyte (diluted in 1×HBS-EP buffer, pH 7.4) was injected over the four flow cells at concentrations of 100 nM to 0.1 nM at a flow rate of […] and at a temperature of 25° C. The protein complex was allowed to associate and dissociate for 180 seconds and 1000 or 1200 seconds, respectively. The surfaces were regenerated with a 30 second injection of 1.5 M NaCl/0.05 M NaOH. The data were fit to a simple 1:1 interaction model using the Langmuir fit option available within the Biaevaluaton software
(§2) The kinetics for binding of the different antibodies to their targets were examined using Biacore analysis.

In assay [2] the target is T4, human B7-H4-Fc (human).
T4 construct: also called hB7-H4-Fc; hB7-H4 Fc
T4 sequence (chain, as listed by the source): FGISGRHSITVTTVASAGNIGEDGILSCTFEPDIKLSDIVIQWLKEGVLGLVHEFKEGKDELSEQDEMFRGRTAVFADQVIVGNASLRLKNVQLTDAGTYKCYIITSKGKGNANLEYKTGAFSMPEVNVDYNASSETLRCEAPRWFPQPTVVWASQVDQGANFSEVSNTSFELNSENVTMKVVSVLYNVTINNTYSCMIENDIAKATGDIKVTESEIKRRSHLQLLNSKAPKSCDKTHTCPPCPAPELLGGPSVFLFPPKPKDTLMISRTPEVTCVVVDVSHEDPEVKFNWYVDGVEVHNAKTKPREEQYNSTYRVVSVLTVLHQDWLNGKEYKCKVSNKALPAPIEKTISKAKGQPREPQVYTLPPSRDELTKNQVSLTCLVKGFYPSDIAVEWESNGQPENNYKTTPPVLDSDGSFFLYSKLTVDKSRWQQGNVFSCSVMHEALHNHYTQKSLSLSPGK
The experiment in a line: SPR (Biacore). The method, then: as §1, §2

For assay [3], the target named is T2, mouse B7-H4-Fc. Description: ELISA, coated mB7-H4-Fc. On the procedure: (§3) About 1-2 μg/ml of human or mouse B7-H4-Fc (or his-tagged) was immobilized on ELISA plates (Immuno 2HB, Thermo scientific, cat #3455) at 4° C. overnight. After blocking the plates with 3% PBS+milk, serial diluted antibodies were added to the blocked plates and incubated at RT for 1-1.5 h. After washing the plates with PBS-T (0.05%), horse radish peroxidase (HRP)-conjugated antibody targeting the hFab was added to the plate. Signals were developed by adding 3,3′,5,5′-Tetramethylbenzidine (TMB (followed 1N of H₂SO₄ to stop the reaction. The OD at 450 nm was read by ELISA plate reader (Infinite M1000 from TECAN). GraphPad from Prism was used to plot OD450 vs. antibody concentration curve and to calculate the EC50 values.
For orientation: An ELISA detects its analyte on a solid surface through an enzyme-linked reagent.

Assay [4] deals with T5, mouse B7-H4 expressed on cells (mouse, UniProt Q7TSP5 25-257).
T5 construct: also called cellular mB7-H4; mB7-H4/CT26
T5 sequence: T1 sequence
The experiment in a line: flow cytometry, mB7-H4/CT26 cells. On the procedure: (§4) Cells were harvested, washed once, and then re-suspended to the concentration of 1×10⁶ cells/ml in ice cold FACS Buffer. 25 μl of cell suspension was added to each well of a 96-well round-bottom microliter plate. Serially diluted antibodies or fusion proteins were added to each well and incubated for 1 hour at 4° C. Cells were washed three times by centrifugation at 1500 rpm for 5 minutes, and then stained with secondary antibody (1:200 dilution) for 30 min at 4° C. in the dark. Cells were washed once, re-suspended in 100 μl PBS buffer and then analyzed using Guava Flow Cytometry EasyCyte system.
(A flow cytometer gives signals particle by particle.)

Assay [5] deals with T6, hB7-H4 (soluble human B7-H4, construct not named) (human, UniProt Q7Z7D3 25-259, limits assumed).
T6 construct: also called soluble hB7-H4
T6 sequence: T3 sequence
The experiment in a line: SPR (Biacore). On the procedure:
as §1

Assay [6] has as its target T7, mB7-H4 (soluble mouse B7-H4, construct not named) (mouse, UniProt Q7TSP5 25-257, limits assumed).
T7 sequence: T1 sequence
Description: SPR (Biacore). On the procedure:
as §1

The target in assay [7] is T7, mB7-H4 (soluble mouse B7-H4, construct …). The experiment in a line: ELISA, mB7-H4. On the procedure:
as §3

Assay [8] addresses T8, human B7-H4 expressed on cells (human, UniProt Q7Z7D3 25-282).
T8 construct: Transfected CHO cells or tumor cell lines that carry hB7-H4; also called cellular hB7-H4
T8 sequence: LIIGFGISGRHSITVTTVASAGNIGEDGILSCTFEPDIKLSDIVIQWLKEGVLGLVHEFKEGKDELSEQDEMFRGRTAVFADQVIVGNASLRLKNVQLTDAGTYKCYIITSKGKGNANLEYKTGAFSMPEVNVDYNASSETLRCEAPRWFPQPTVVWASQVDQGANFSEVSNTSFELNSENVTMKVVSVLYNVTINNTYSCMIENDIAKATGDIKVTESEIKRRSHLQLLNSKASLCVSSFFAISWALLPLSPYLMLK
Description: flow cytometry, SK-BR-3 cells. On the procedure:
as §4

In assay [9] the target is T6, hB7-H4 (soluble human B7-H4, construct …). Description: ELISA, hB7-H4. On the procedure:
as §3

For assay [10], the target named is T9, IgV domain of human B7-H4-Fc (human).
T9 construct: also called hB7-H4 IgV domain
T9 sequence (chain, as listed by the source): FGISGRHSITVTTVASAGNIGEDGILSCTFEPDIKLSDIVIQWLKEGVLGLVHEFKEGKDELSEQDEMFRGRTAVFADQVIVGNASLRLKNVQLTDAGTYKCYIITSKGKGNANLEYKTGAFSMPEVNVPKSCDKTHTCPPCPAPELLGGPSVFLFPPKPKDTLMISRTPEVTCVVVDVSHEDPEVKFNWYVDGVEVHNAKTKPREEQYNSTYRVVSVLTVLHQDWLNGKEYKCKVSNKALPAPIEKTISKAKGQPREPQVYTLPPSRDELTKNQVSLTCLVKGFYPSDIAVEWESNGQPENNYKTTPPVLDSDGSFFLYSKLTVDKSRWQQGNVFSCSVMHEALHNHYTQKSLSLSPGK
Description: ELISA, coated hB7-H4 IgV domain. The method, then:
as §3

Assay [11] addresses T10, IgV domain of mouse B7-H4-Fc (mouse; human).
T10 construct: also called mB7-H4 IgV domain
Description: ELISA, coated mB7-H4 IgV domain. The method, then: as §3

The target of assay [12] is T4, human B7-H4-Fc. Description: ELISA, coated hB7-H4-Fc. The method, then: as §3

Substitutions are numbered along the chain they refer to.

The term Kd denotes the free concentration of one partner at which half of the binding sites on the other are occupied at equilibrium, for simple one-to-one binding. The term EC50 denotes the concentration needed to bring the measured effect to its halfway point. A low value points to an effect from little substance. A word on the EC50 (read off the curve): it is the concentration giving half of the maximal effect. High values mean a need for much substance, low ones an effect from little substance.

T10 sequence (chain, as listed by the source): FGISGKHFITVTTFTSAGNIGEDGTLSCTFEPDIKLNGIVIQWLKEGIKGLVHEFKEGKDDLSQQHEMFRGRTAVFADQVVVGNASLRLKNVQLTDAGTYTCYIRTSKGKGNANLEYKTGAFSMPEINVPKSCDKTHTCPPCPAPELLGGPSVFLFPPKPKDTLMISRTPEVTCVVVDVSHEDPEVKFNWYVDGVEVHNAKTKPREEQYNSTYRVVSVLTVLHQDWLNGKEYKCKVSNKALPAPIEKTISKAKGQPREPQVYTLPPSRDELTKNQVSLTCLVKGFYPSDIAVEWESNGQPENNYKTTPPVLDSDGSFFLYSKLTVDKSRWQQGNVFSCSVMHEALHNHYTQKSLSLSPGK

B1: 15B11/15B11 (antibody, V domains shown)
VH: QVQLVQSGAEVKKPGASVKVSCKASGYTFTGYYIHWVRQAPGQGLEWMGWMNPHSGHTGYAQNLQGRVTMTRDTSTSTVYMELSSLRSEDTAVYYCARVKVTTGFDYWGQGTLVTVSS
VL: not shown
Regarding B1, the dissociation constant (Kd) turned out to be 6.17 nM in the assay with mouse B7-H4-his, 3.55 nM with mouse B7-H4-Fc [1], 5.17 nM with human B7-H4-his and 4.26 nM with human B7-H4-Fc [2].

B2: 24B6/24B6 (antibody, human IgG1, V domains shown)
VH: QVQLVQSGAEVKKPGASVKVSCKASGYTFTGYYMHWVRQAPGQGLEWIGWMNPNSGDTGYAQKFQGRVTMTRDTSTSTVYMELSSLRSEDTAVYYCAKVGAYGGMDVWGQGTTVTVSS
VL: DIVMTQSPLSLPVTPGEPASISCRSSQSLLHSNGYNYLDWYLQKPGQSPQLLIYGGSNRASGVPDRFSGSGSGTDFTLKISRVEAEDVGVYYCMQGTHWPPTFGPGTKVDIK
With B2, the binding result with mouse B7-H4-Fc [3] was “binds”. In addition, the Kd came out at 3.4 nM with mouse B7-H4-his and 5.3 nM with human B7-H4-his.

B3: 30G4/30G4 (antibody, human IgG1, V domains shown)
VH: B2 VH with T30S, G31S, I48M, K98R, G100P, A101E, Y102T
VL: DIVMTQSPLSLPVTPGEPASISCRSSQSLLHSNGYNYLDWYLQKPGQSPQLLIYGASSLHSGVPDRFSGSGSGTDFTLKISRVEAEDVGVYYCMQGTHWPPTFGQGTKVEIK
Turning to B3, in the assay with mouse B7-H4-Fc [3], the binding result is “binds”. Further, the Kd with mouse B7-H4-his was determined as 6.38 nM; with human B7-H4-his it was 6.05 nM.

B4: 9D11/9D11 (antibody, human IgG1, V domains shown)
VH: QVQLVQSGAEVKKPGASVKVSCKASGYTFTSYGISWVRQAPGQGLEWVGVINPNGGTTTYAQTFQGRVTMTRDTSTSTVYMELSSLRSEDTAVYYCARTGYSSGWAFDYWGRGTLVTVSS
VL: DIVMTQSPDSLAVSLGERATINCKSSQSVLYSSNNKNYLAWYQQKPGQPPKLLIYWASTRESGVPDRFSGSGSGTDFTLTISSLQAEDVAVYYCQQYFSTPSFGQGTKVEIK
In the case of B4, the concentration giving a half-maximal response (EC50) in [4] was found to be 122 nM; in assay [7], 0.104 nM; in assay [8], 126 nM; in assay [9] it was 0.18 nM. Moreover, the Kd in assay [5] was 5.97 nM; in assay [6], 4.78 nM; with mouse B7-H4-his, 1.52 nM; in the assay with mouse B7-H4-Fc [1], 0.642 nM; in the assay with human B7-H4-his, 0.85 nM; with human B7-H4-Fc [2], 1.8 nM.

B5: 9D11/67C6 (antibody, human IgG1, V domains shown)
VH: B4 VH
VL: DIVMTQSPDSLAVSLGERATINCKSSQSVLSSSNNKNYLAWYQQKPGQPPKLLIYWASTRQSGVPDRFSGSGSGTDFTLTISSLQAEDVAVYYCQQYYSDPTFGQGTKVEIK
notes: 9D11 VH with 67C6 VL
In the case of B5, the EC50 worked out at 45.7 nM in assay [4], 0.082 nM in assay [7], 9.2 nM in [8] and 0.115 nM in assay [9]. Further, the dissociation constant (Kd) in [5] came to 15 nM; in [6] it was 2.8 nM. Also, in the assay with mouse B7-H4-Fc [3], the binding result is reported as “binds”.

B6: 9D11/67H9 (antibody, human IgG1, V domains shown)
VH: B4 VH
VL: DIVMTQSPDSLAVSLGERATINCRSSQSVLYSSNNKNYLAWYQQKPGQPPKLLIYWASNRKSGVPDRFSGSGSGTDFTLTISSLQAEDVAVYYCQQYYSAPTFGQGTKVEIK
notes: 9D11 VH with 67H9 VL
Consider B6, for which the EC50 is 54.3 nM in assay [4], 0.105 nM in [7], 24 nM in assay [8] and 0.1 nM in [9]. Moreover, the Kd in assay [5] was found to be 7.09 nM; in assay [6], 6.08 nM.

B7: 9D11/67G3 (antibody, human IgG1, V domains shown)
VH: B4 VH
VL: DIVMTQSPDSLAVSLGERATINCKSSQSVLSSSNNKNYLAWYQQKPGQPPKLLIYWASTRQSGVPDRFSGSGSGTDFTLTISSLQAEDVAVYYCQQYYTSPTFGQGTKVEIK
notes: 9D11 VH with 67G3 VL
B7: the EC50 in assay [4] came to 45.3 nM; in [7], 0.162 nM; in assay [8] it was 22.5 nM; in assay [9] it was 0.261 nM. The Kd in assay [5] was 10.6 nM; in [6] it was 8.46 nM. In addition, the binding result with mouse B7-H4-Fc [3] is “binds”.

B8: 9E1/9E1 (antibody, V domains shown)
VH: QVQLVQSGAEVKKPGASVKVSCKASGYTFTGYYLHWVRQAPGQGLEWMGWINPNSGGTNSAQRFQGRVTMTRDTSTSTVYMELSSLRSEDTAVYYCARVRGYEGGMDVWGQGTTVTVSS
VL: not shown
For the molecule B8, the Kd was found to be 12.4 nM in the assay with mouse B7-H4-his, 10.6 nM in the assay with mouse B7-H4-Fc [1], 7.91 nM in the assay with human B7-H4-his and 13.7 nM with human B7-H4-Fc [2]. The binding result in assay [10] and in assay [11] was “no binding (tested: 20 nM)” throughout.

B9: 5G6/5G6 (antibody, human IgG1, V domains shown)
VH: QVQLVQSGAEVKKPGASVKVSCKASGYTFTSYYMHWVRQAPGQGLEWLGWVNPNTGTTRFAQKFQGRVTMTRDTSTSTVYMELSSLRSEDTAVYYCARDANYYYGMDVWGQGTMVTVSS
VL: DIVMTQSPDSLAVSLGERATINCKSSQSVLYSSNNKNYLAWYQQKPGQPPKLLIYWASTRESGVPDRFSGSGSGTDFTLTISSLQAEDVATYYCQKYNSALPITFGQGTRLEIK
In the case of B9, the Kd was 7.83 nM with mouse B7-H4-his, 13.1 nM with mouse B7-H4-Fc [1], 5.19 nM in the assay with human B7-H4-his and 12.1 nM in the assay with human B7-H4-Fc [2]. For the same molecule, the binding result in assay [10] and in assay [11] was “no binding (tested: 20 nM)” in each case.

B10: 24F4/24F4 (antibody, human IgG1, V domains shown)
VH: QVQLVQSGAEVKKPGSSVKVSCKASGYRFTGDYIHWVRQAPGQGLEWMGWMNPNSGNTGLAQKFQGRVTITADESTSTAYMELSSLRSEDTAVYYCARVLGFSGGMDVWGQGTTVTVSS
VL: B3 VL with G55A, H60R, V109L
As to B10, the binding result with mouse B7-H4-Fc [3] is “binds”. Moreover, the Kd with mouse B7-H4-his came to 29.2 nM; with human B7-H4-his, 194 nM.

B11: 5F4/5F4 (antibody, human IgG1, V domains shown)
VH: EVQLLESGGGLVKPGGSLRLSCAASGFTFSSYAMHWVRQAPGKGLEWVSAIGGSGRTTYYADSVKGRFTISRDDSKNTLYLQMNSLKTEDTAVYYCARERGYSYGQIDYWGQGTLVTVSS
VL: B3 VL with G55A, H60Q, T97A, P101L
Consider B11, for which the “EC50 (read off the curve)” value with mouse B7-H4-Fc [3] and with human B7-H4-Fc [12] was around 0.1 nM each time. Also, the Kd in the assay with mouse B7-H4-his worked out at 15 nM; with mouse B7-H4-Fc [1], 11.9 nM; with human B7-H4-his it was 16.6 nM; with human B7-H4-Fc [2] it was 15 nM. Also, the binding result in assay [10] and in [11] was “no binding (tested: 20 nM)” throughout.

The values above are taken from patent publication US20230312724A1 (KADMON, published 2023).
